Reference: article doi:10.1101/2021.11.02.467024 (bioRxiv, 2021)

Target: the molecule itself
Assay: cross-linking

B1: IMPDH1 (enzyme)
chain: not shown
Question: How did the “stoichiometry N” value turn out when B1 was run?
Answer: Its value is 4.
